Reference: IntAct's records for PubMed 9278513

B1: Phytochrome-like protein Cph1 (Synechocystis sp. (strain PCC 6803 / Kazusa)), Q55168 (parent)
chain: MATTVQLSDQSLRQLETLAIHTAHLIQPHGLVVVLQEPDLTISQISANCTGILGRSPEDLLGRTLGEVFDSFQIDPIQSRLTAGQISSLNPSKLWARVMGDDFVIFDGVFHRNSDGLLVCELEPAYTSDNLPFLGFYHMANAALNRLRQQANLRDFYDVIVEEVRRMTGFDRVMLYRFDENNHGDVIAEDKRDDMEPYLGLHYPESDIPQPARRLFIHNPIRVIPDVYGVAVPLTPAVNPSTNRAVDLTESILRSAYHCHLTYLKNMGVGASLTISLIKDGHLWGLIACHHQTPKVIPFELRKACEFFGRVVFSNISAQEDTETFDYRVQLAEHEAVLLDKMTTAADFVEGLTNHPDRLLGLTGSQGAAICFGEKLILVGETPDEKAVQYLLQWLENREVQDVFFTSSLSQIYPDAVNFKSVASGLLAIPIARHNFLLWFRPEVLQTVNWGGDPNHAYEATQEDGKIELHPRQSFDLWKEIVRLQSLPWQSVEIQSALALKKAIVNLILRQAEELAQLARNLERSNADLKKFAYIASHDLQEPLNQVSNYVQLLEMRYSEALDEDAKDFIDFAVTGVSLMQTLIDDILTYAKVDTQYAQLTFTDVQEVVDKALANLKQRIEESGAEIEVGSMPAVMADQIQLMQVFQNLIANGIKFAGDKSPKIKIWGDRQEDAWVFAVQDNGIGIDPQFFERIFVIFQRLHTRDEYKGTGMGLAICKKIIEGHQGQIWLESNPGEGSTFYFSIPIGN
partner: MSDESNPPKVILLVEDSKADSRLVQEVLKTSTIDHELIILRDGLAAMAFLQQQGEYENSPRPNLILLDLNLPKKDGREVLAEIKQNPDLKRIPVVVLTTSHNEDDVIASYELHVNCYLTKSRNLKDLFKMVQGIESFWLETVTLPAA
B2: Response regulator Rcp1 (Synechocystis sp. (strain PCC 6803 / Kazusa)), Q55169 (parent)
chain: B1 partner

Variants of: B1
Conditions: with rcp1_syny3 rcp1, Q55169

Row | effect of a mutation on the interaction | Variant
1 | disrupting interaction | H538K

Variants of: B2
Conditions: with phy1_syny3 cph1, Q55168

Row | effect of a mutation on the interaction | Variant
2 | disrupting interaction | MSDESNPPKVILLVEDSKADSRLVQEVLKTSTIDHELIILRDGLAAMAFLQQQGEYENSPRPNLILLALNLPKKDGREVLAEIKQNPDLKRIPVVVLTTSHNEDDVIASYELHVNCYLTKSRNLKDLFKMVQGIESFWLETVTLPAA
